Common to all, as to conditions: both partners purified
For experiment [1], the target named is T1, full-length Sis1 (residues 1–352), Sis1_(1–352) (S. cerevisiae, UniProt P25294 1-352).
T1 construct: Sis1, class B J-domain protein of S. cerevisiae, residues 1-352 (352 residues long); J-domain 1-72, GF 73-121, GM 122-178, CTDI 179-257, CTDII 258-335, dimerization domain 336-352; 15N- or 2H/15N-labelled; also called 15N-Sis1_(1–352); 2H-15N-Sis1_(1–352)
T1 sequence (looked up): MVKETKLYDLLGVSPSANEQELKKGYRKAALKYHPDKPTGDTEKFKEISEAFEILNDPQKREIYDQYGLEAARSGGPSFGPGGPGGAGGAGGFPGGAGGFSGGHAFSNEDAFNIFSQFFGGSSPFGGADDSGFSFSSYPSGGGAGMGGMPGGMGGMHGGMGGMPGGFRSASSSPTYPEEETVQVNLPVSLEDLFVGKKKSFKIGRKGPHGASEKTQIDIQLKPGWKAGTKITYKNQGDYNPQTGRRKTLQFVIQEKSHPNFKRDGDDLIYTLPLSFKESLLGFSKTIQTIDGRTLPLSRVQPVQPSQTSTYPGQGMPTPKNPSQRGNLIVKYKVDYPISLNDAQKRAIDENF
The experiment is described as follows: NMR titration; 1H-15N TROSY of 0.3 mM 15N-Sis1(1-352) free and with GPTIEEVD (1:4 protein:peptide), CSP; 25 mM Tris-HCl pH 7.5, 200 mM NaCl, 10% D2O, 303 K.

For experiment [2], the target named is T1, full-length Sis1 (residues 1–352), …. The experiment is described as follows: NMR titration; paramagnetic relaxation enhancement: Sis1(1-352) with TEMPO-labeled EEVD peptide, TROSY spectra, paramagnetic against diamagnetic (reduced with ascorbate) intensity ratio.
The target of experiment [3] is T2, Sis1_(1–81), J-domain of Sis1 (residues 1–81) (S. cerevisiae, UniProt P25294 1-81).
T2 construct: Sis1, class B J-domain protein of S. cerevisiae, residues 1-81: J-domain (1-72) and part of the GF region (73-81); 15N-labelled for HSQC, 13C/15N-labelled for the structure; also called 15N-Sis1_(1–81)
T2 sequence (looked up): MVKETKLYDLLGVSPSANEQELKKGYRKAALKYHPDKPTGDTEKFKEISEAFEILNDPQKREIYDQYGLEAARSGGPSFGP
Description: NMR titration; paramagnetic relaxation enhancement: 15N-Sis1(1-81) titrated with TEMPO-labeled …, 1H-15N HSQC at 900 MHz; diamagnetic sample after reduction with 3 mM ascorbic acid; intensity ratio Ipara/Idia.

Ends that are not written are not given here.

B1: GPTIEEVD peptide (EEVD peptide, C-terminal motif of HSP70/Ssa1) (peptide)
peptide: GPTIEEVD
notes: also called Ssa1-EEVD; source: synthetic peptide (GenOne Biotechnologies, Rio de Janeiro)
For B1, the binding result in experiment [1] is given as “binds”.

B2: TEMPO-labeled CGPTIEEVD peptide (TEMPO-EEVD) (peptide)
peptide: C(4‑maleimide‑TEMPO)GPTIEEVD
notes: N-terminal cysteine that carries the spin label; also called spin-labeled EEVD; paramagnetic EEVD peptide; source: synthetic peptide (GenOne Biotechnologies), labelled with 4-maleimide-TEMPO, HPLC (C18) purified
As to B2, the binding result in experiment [2] and in experiment [3] was “binds” each time.

The values above are taken from paper PMC11722011, “NMR Studies on the Structure of Yeast Sis1 and the Dynamics of Its Interaction with Ssa1-EEVD” (Molecules, 2024).
